Where a chain is given by its changes, count along the chain named.

In experiment [1] the target is T1, wildtype human α-synuclein (human, UniProt P37840 1-140). Put plainly: SPR (Biacore), antibody captured on anti-human IgG chip, alpha synuclein flowed over, 1:1 model, global fit. On the technique in general: Surface plasmon resonance follows binding to a sensor surface in real time, without labels.
Description: An anti-human IgG CMS Biacore chip was prepared following the protocol supplied by GE Healthcare.
Data was collected and double reference subtracted to account for drift and a small amount of nonspecific binding. The data was analyzed using BIAcore evaluation software using a 1:1 model and a global fit.
The target in experiment [2] is T1, wildtype human α-synuclein. Kind of experiment: ELISA on α-synuclein, twofold dilution series of the antibody.

B1: humanized 5C1 H4L3 (antibody, V domains shown)
VH: QVQLVQSGAELKKPGSSVKVSCKASGYTFTNYWMNWVRQAPGQGLEWIGATNPNNGYTDYNQRFKDRATLTADKSTNTAYMELSSLRSEDTAVYYCASGGHLAYWGQGTLVTVSS
VL: DVVMTQSPLSLSVSPGEPASISCRSSQSLFHSKGNTYLHWYLQKPGQSPQLLINRVSNRFSGVPDRFSGSGSGTDFTLKISRVEAEDVGVYFCSQSAHVPWTFGGGTKVEIK
notes: The human constant region is not specified; also called h5C1_H4L3
On to B1, for which, in experiment [1], the Kd (usually the equilibrium constant for the complex coming apart) was 120 nM and the koff (in general, a measure of how fast the partners let go of each other) is 0.0051 s⁻¹.

B2: chimeric 5C1 antibody (antibody, V domains shown)
VH: QVQLQQSGAELAKPGTSVQMSCKASGYTFTNYWMNWIKARPGQGLEWIGATNPNNGYTDYNQRFKDKAILTADKSSNTAYMHLSSLTSEDSAVYFCASGGHLAYWGQGTVVTVSA
VL: B1 VL with S7I, S10Y, E17D, P18Q, Q50K, R82G, V88L, V109L, K112R
notes: also called Ch5C1
For the molecule B2, in experiment [1], the affinity, expressed as Kd, was 86 nM and the off-rate (koff) stood at 0.0053 s⁻¹.

B3: murine 5C1 antibody (antibody, mouse IgG1, V domains shown)
VH: B2 VH
VL: B1 VL with S7I, S10Y, E17D, P18Q, Q50K, R82G, V88L, V109L, K112R
notes: also called m5C1; mouse 5C1
As to B3, in experiment [1], the affinity, expressed as Kd, was 68.7 nM; the dissociation rate constant (koff) amounted to 0.0051 s⁻¹; the association rate constant (kon) (as a rule, a measure of how fast the partners come together) was 75000 M⁻¹ s⁻¹.

B4: humanized 5C1 H3L3 (antibody, V domains shown)
VH: B1 VH with Y95F
VL: B1 VL
notes: The constant region is not specified
For the molecule B4, the binding result in experiment [2] was “binds”.

B5: humanized 5C1 H3L4 (antibody, V domains shown)
VH: B1 VH with Y95F
VL: B1 VL with V2I, N54Y
notes: It was captured on an anti-human IgG chip, so it carries a human constant region, which is not specified; also called h5C1_H3L4
In experiment [1], B5 gave a Kd of 1240 nM.

B6: humanized 5C1 H3L1 (antibody, V domains shown)
VH: B1 VH with Y95F
VL: B1 VL with Q50K
notes: as for B4
Take B6: the binding result in experiment [2] is on record as “binds”.

B7: humanized 5C1 H5L4 (antibody, V domains shown)
VH: B1 VH with A68V, L70I
VL: B1 VL with V2I, N54Y
notes: The human constant region is not specified; also called h5C1_H5L4
In turn, B7 gave a Kd in experiment [1] of 1060 nM.

B8: humanized 5C1 H5L3 (antibody, V domains shown)
VH: B1 VH with A68V, L70I
VL: B1 VL
notes: The human constant region is not specified; also called h5C1_H5L3
For the molecule B8, in experiment [1], the Kd worked out at 283 nM.

B9: humanized 5C1 H1L1 (antibody, V domains shown)
VH: B1 VH with S98R
VL: B1 VL with Q50K
notes: as for B4
In the case of B9, the binding result in experiment [2] is given as “no binding (tested: 1000 (x axis has no unit))”.

B10: humanized 5C1 H4L4 (antibody, V domains shown)
VH: B1 VH
VL: B1 VL with V2I, N54Y
notes: The human constant region is not specified; also called h5C1_H4L4
In experiment [1], B10 gave a dissociation constant Kd of 601 nM.

The record behind these values is US20190315843A1 (PROTHENA BIOSCIENCES, published 2019).
